Source: patent US10981967B2, “Long-acting conjugate of triple glucagon/GLP-1/GIP receptor agonist” (HANMI PHARM. CO., LTD., priority 2015, dated 2021)
Positions of bridges follow the written chain, without caps; N, C: chain ends. Non-standard residues stand in square brackets, D forms with d. No end group written: not given here. Aib = CC(C)(N)C(=O)O

How the values were obtained:
Type in all cases: cell-based
human GLP-1 receptor = biological target: T1, human GLP-1 receptor (Homo sapiens, UniProt P43220); assay: In vitro cAMP activity (LANCE cAMP kit) in CHO cells expressing human GLP-1 receptor, relative to human GLP-1; settings: long-acting conjugates; relative potency from cAMP EC50 compared to human GLP-1, CHO cells
T1 construct: expressed in transfected cells; host or cells: Chinese hamster ovary (CHO)
T1 sequence (P43220 24-463): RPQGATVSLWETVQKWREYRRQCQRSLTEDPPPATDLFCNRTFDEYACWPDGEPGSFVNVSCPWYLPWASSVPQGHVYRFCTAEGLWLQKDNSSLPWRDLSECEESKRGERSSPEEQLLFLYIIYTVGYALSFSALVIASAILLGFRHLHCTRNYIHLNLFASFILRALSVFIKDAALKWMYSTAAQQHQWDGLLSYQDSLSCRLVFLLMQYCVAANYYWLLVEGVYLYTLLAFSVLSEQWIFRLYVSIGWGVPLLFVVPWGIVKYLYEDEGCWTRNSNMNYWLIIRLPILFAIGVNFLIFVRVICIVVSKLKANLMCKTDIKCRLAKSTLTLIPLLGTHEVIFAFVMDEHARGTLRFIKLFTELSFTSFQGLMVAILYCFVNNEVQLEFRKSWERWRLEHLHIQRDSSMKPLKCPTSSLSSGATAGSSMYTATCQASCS
Method: (§1) The activities of the triple agonists and long-acting conjugates thereof prepared in Examples 1 and 2 were measured by a method of measuring in vitro cellular activities using cell lines, where a GLP-1 receptor, a glucagon (GCG) receptor, and a GIP receptor are transformed, respectively.
(§2) Each of the cell lines above is one in which the genes for human GLP-1 receptor, human GCG receptor, and human GIP receptor were transformed in Chinese hamster ovary (CHO), respectively, and can be expressed therein, and is thus suitable for the measurement of the activities of GLP-1, GCG, and GIP. Accordingly, the activity for each part was measured using the respective transformed cell line.
(§3) For the measurement of the GLP-1 activities of the triple agonists and long-acting conjugates prepared in Examples 1 and 2, human GLP-1 was subjected to a 4-fold serial dilution from 50 nM to 0.000048 nM, and the triple agonists and long-acting conjugates thereof prepared in Examples 1 and 2 were subjected to a 4-fold serial dilution from 400 nM to 0.00038 nM. The culture solution was removed from the cultured CHO cells, in which the human GLP-1 receptor was expressed, and each of the serially-diluted materials was added to the CHO cells in an amount of 5 μL, respectively. Then, a buffer solution containing cAMP antibody was added thereto in an amount of 5 μL and cultured at room temperature for 15 minutes. Then, a detection mix containing a cell lysis buffer was added thereto in an amount of 10 μL for the lysis of the cells and reacted at room temperature for 90 minutes. The cell lysates, upon completion of the reaction, were applied to LANCE cAMP kit (PerkinElmer, USA) to calculate the EC50 value via accumulated cAMP, and the values were compared with each other.

human GCG receptor = biological target: T2, human GCG receptor (Homo sapiens, UniProt P47871); assay: In vitro cAMP activity (LANCE cAMP kit) in CHO cells expressing human GCG receptor, relative to human GCG; settings: long-acting conjugates, relative potency from cAMP EC50 compared to human GCG
T2 construct: expressed in transfected cells; host or cells: Chinese hamster ovary (CHO)
T2 sequence (P47871 26-477): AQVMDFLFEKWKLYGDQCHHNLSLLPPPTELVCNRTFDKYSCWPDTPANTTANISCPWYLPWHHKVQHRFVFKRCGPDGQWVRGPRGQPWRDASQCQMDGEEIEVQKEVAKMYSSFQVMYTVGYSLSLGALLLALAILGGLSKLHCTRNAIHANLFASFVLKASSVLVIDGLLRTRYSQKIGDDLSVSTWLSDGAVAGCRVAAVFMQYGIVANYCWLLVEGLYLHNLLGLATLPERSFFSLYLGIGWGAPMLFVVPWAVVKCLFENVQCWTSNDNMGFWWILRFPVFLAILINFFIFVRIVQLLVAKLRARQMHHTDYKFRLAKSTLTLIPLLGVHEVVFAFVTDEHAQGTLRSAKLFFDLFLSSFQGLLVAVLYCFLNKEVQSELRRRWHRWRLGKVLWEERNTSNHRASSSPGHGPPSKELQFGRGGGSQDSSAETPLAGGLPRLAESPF
Method: as §1, §2
as §3, with “GCG” for “GLP-1”

human GIP receptor = biological target: T3, human GIP receptor (Homo sapiens, UniProt P48546); assay: In vitro cAMP activity (LANCE cAMP kit) in CHO cells expressing human GIP receptor, relative to human GIP; settings: long-acting conjugates, relative potency from cAMP EC50 compared to human GIP
T3 construct: expressed in transfected cells; host or cells: Chinese hamster ovary (CHO)
T3 sequence (P48546 22-466): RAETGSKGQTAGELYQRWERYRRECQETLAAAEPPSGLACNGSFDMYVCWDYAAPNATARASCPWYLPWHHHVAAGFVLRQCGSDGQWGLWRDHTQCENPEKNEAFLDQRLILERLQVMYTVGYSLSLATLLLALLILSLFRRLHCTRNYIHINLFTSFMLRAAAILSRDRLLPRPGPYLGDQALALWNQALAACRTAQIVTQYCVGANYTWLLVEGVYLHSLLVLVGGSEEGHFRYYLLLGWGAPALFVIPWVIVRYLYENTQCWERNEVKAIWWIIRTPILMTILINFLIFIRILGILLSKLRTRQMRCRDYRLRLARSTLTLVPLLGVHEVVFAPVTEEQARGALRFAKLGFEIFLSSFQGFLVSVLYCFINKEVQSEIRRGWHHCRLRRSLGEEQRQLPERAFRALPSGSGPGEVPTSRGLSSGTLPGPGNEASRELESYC
Method: as §1, §2
as §3, with “GIP” for “GLP-1”

In vitro activity compared to native peptide (%) vs. GLP-1 (human GLP-1 receptor) [%] | In vitro activity compared to native peptide (%) vs. Glucagon (human GCG receptor) [%] | In vitro activity compared to native peptide (%) vs. GIP (human GIP receptor) [%] | Substance
0.1 | 1.6 | 0.2 | 21 (Y[Aib]QGTFTSDYSKYLDECRAKEFVQWLLDHHPSSGQPPPS; bridge 16-20) [compound 21]
0.1 | 0.9 | 0.5 | 22 (Y[Aib]QGTFTSDYSKCLDEKRAKEFVQWLLDHHPSSGQPPPS; bridge 16-20) [compound 22]
3.1 | 23.1 | 1.2 | 42 (Y[Aib]QGTFTSDYSKYLDEKRAKEFVQWLLDHHPSSGQPPPSC; bridge 16-20) [compound 42]
2.1 | 13.5 | 0.6 | 43 (Y[Aib]QGTFTSDYSKYLDEKRAKEFVQWLLDHHCSSGQPPPS; bridge 16-20) [compound 43]
15.4 | 6.9 | 0.7 | 50 (H[Aib]QGTFTSDYSKYLDEKRAKEFVQWLLDHHPSSGQPPPSC; bridge 16-20) [compound 50]
6.7 | 1.7 | 6.6 | 77 (Y[Aib]QGTFTSDYSKYLDEKAAKDFVQWLLDHHPSSGQPPPSC; bridge 16-20) [compound 77]
0.3 | 4.0 | 0.3 | 96 (Y[Aib]QGTFTSDYSKYLDEKRAKEFVQWLLDHCPSSGQPPPS; bridge 16-20) [compound 96]
